This note sets out measurements from IntAct's records for PubMed 22801494.

The labels stand for the following.
B1: Interferon-induced, double-stranded RNA-activated protein kinase (Homo sapiens), P19525 (parent)
chain: MAGDLSAGFFMEELNTYRQKQGVVLKYQELPNSGPPHDRRFTFQVIIDGREFPEGEGRSKKEAKNAAAKLAVEILNKEKKAVSPLLLTTTNSSEGLSMGNYIGLINRIAQKKRLTVNYEQCASGVHGPEGFHYKCKMGQKEYSIGTGSTKQEAKQLAAKLAYLQILSEETSVKSDYLSSGSFATTCESQSNSLVTSTLASESSSEGDFSADTSEINSNSDSLNSSSLLMNGLRNNQRKAKRSLAPRFDLPDMKETKYTVDKRFGMDFKEIELIGSGGFGQVFKAKHRIDGKTYVIKRVKYNNEKAEREVKALAKLDHVNIVHYNGCWDGFDYDPETSDDSLESSDYDPENSKNSSRSKTKCLFIQMEFCDKGTLEQWIEKRRGEKLDKVLALELFEQITKGVDYIHSKKLIHRDLKPSNIFLVDTKQVKIGDFGLVTSLKNDGKRTRSKGTLRYMSPEQISSQDYGKEVDLYALGLILAELLHVCDTAFETSKFFTDLRDGIISDIFDKKEKTLLQKLLSKKPEDRPNTSEILRTLTVWKKSPEKNERHTC

This assay covers variants of B1. As to conditions: with nlrp3_human NLRP3, Q96P20.
nlrp3_human NLRP3, Q96P20, sequence (Q96P20 whole entry): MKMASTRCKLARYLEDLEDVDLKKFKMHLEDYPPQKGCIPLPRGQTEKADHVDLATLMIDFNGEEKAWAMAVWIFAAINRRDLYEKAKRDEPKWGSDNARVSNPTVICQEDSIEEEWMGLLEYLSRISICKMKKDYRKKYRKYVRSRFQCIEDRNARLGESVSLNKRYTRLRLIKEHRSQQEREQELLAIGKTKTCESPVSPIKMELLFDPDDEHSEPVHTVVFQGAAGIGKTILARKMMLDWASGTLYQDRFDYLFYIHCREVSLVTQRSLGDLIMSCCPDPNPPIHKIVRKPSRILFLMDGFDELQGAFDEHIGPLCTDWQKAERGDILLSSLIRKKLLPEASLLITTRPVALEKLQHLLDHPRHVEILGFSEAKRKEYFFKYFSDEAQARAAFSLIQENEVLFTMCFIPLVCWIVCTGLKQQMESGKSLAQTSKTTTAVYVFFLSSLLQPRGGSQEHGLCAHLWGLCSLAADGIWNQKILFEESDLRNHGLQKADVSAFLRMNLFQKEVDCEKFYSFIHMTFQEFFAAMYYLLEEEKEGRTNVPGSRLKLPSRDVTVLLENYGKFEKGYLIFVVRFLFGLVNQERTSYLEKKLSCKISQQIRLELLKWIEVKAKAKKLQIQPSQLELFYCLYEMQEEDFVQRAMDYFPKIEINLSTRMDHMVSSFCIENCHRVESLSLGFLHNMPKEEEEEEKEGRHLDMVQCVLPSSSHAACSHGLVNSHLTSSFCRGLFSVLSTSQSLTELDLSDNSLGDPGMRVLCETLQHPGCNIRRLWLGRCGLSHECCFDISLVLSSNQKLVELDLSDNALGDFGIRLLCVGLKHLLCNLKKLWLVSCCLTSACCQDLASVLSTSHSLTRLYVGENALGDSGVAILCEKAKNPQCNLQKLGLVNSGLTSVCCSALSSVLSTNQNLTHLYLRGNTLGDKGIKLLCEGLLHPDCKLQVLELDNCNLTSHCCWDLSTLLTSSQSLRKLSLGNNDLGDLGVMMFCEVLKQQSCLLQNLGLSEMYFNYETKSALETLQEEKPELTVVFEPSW
On to MAGDLSAGFFMEELNTYRQKQGVVLKYQELPNSGPPHDRRFTFQVIIDGREFPEGEGRSKKEAKNAAAKLAVEILNKEKKAVSPLLLTTTNSSEGLSMGNYIGLINRIAQKKRLTVNYEQCASGVHGPEGFHYKCKMGQKEYSIGTGSTKQEAKQLAAKLAYLQILSEETSVKSDYLSSGSFATTCESQSNSLVTSTLASESSSEGDFSADTSEINSNSDSLNSSSLLMNGLRNNQRKAKRSLAPRFDLPDMKETKYTVDKRFGMDFKEIELIGSGGFGQVFKAKHRIDGKTYVIRRVKYNNEKAEREVKALAKLDHVNIVHYNGCWDGFDYDPETSDDSLESSDYDPENSKNSSRSKTKCLFIQMEFCDKGTLEQWIEKRRGEKLDKVLALELFEQITKGVDYIHSKKLIHRDLKPSNIFLVDTKQVKIGDFGLVTSLKNDGKRTRSKGTLRYMSPEQISSQDYGKEVDLYALGLILAELLHVCDTAFETSKFFTDLRDGIISDIFDKKEKTLLQKLLSKKPEDRPNTSEILRTLTVWKKSPEKNERHTC [K296R], for which the “effect of a mutation on the interaction” value was “disrupting interaction strength”.
